Measurements from the DeepSol protein solubility set.

Experiment: soluble on expression in E. coli; label from the status in PepcDB or PDB records

| Sequence | soluble on expression in E. coli |
| --- | --- |
| MSLEVIKHDGPGRLGVIRLEPPVQTPALAGVDFTLSPFNSFFYPKDYKEYDFNLAPAIPLSYYTPDEIIKKAVKRLWEVDYSKFNAFYFPALKRTKHYEELFKIIEENDFDAIYIGNSKSMIKDYRGFVFTMRELREKFPNAVLITDLEPFFYPLAVYLGIDAFDIRSLKIYSYEGLGFTQFSPIIWDEPKEDPVEYAKKIIRLIRIAIHEGKLRYLVENFLPTSMNAGILRIADRENIEYLEKYTPVDDKTVVFISDYSMTRPEVYRWAKRVRERFEPPKDIELLLILPCSAKKPYSRSRSHTLYRSAVKEALGEKMHRVHELIVTSPYGVVPREWEWIAKYDIVVTGHWSEREVRLAGELLADVLEKYPDIPIIAHVEGGYREAVKLAMELSGRDVIFTAKGNSTTSRESLANLTKTLKEFDVREGHHHHHH | not soluble |
| MSLEWCKNRLEITGRSVFVDIMQQWVTGEEVPLYRHAIQQSIRLFLAGCAGILKPVKCMEYPPFPRLVSHGTGSAVASNLAFQHWLDLLLKDAVLDGDTIRQIDRIYLQSGIASVKWETIPEGARQIITQLMARQYPDWFGVASWSSHINGADCWTKLGVMQEHACNCDMLMIIPTRLAIELNGNSQLLTGVSTTHDLYSHLYGMAWPSGQNIIWQRDRINSLRLDFDSPSYPPSAELMGELSAVFDCEIRHWYQEPVNGIRGYDCYDRGDHVDSGEYGAGPFLPPLKVEEVTVNGQEEAAEGHHHHHH | soluble |
| MSLFFDKVIRLNIGGKRFDTHKSTLMKFDGYFKKFLQTPGSSLVDPIFVDRSPTYFDIVLNFMRKGRADLPETLKDLKMLLGEAEYYELTELCDDCKREISRLDIGIESEPFYEIIPEPSVVARNNNNTIPNNVVEVGS | soluble |
| MSLFMPPVFPAHWHVSQPVLIADTFSSLVWKVSLPDGTPAIVKGLKPIEDIADELRGADYLVWRNGRGAVRLLGRENNLMLLEYAGERMLSHIVAEHGDYQATEIAAELMAKLYAASEEPLPSALLPIRDRFAALFQRARDDQNAGCQTDYVHAAIIADQMMSNASELRGLHGDLHHENIMFSSRGWLVIDPVGLVGEVGFGAANMFYDPADRDDLCLDPRRIAQMADAFSRALDVDPRRLLDQAYAYGCLSAAWNADGEEEQRDLAIAAAIKQVRQTSYEGHHHHHH | soluble |
| MSLFQVPDSEGGRAGSRAMKPPGGESSNLFGSPEEATPSSRPNRMASNIFGPTEEPQNIPKRTNPPGGKGSGIFDESTPVQTRQHLNPPGGKTSDIFGSPVTATSRLAHPNKPKDHVFLCEGEEPKSDLKAARSIPAGAEPGEKGSARKAGPAKEQEPMPTVDSHEPRLGPRPRSHNKVLNPPGGKSSISFYEGHHHHHH | soluble |
| MSLFRVGRKIARSIHKAITSEDSVDVSELDGVRSLHLGSDTIQSSMRIKDPYALELRYSRGMMVYLLFQKQPRDLVVLGLGGGSIPKYVYHHLPQVKTRVVEINPRIIEVARSHFFTPENDERFEIIEGDAAAFLRDNPATTSMLMMDAFGSNGLPPDLCSQDFFDSCFEALTLDGMCAINLWGSDKHYDVYLQRIETSFHGRILVMPTGRPGNVVVFGFKRAPNDLRWSTLRVRAKALEAEHKIEFLEFVERLREHNPSTSNRLLLESEGHHHHHH | soluble |
| MSLFYANMKEFELIKLVERLFGDEDVITPAGKHDAAYVKIGNRLIVLTCDTVNEKSDFPPYMLPEEMGWMAIAVTLSDVAACGARPLYFLSSISLKSIEFFEDILLGIKRCADRFGVKVVGGDIDFSEITTIAGFAIGEARRHITRRGAKVGEGVFITDLPGKAQLCLEMLERGAKREELPYAEKLYTPVPRIEEGMRIARYASAMTDVSDSLAVSLHQISQSSNVKIVLDNIVLSHLSPAENALELFLYGGGDFELVYTAKSSDDGIRIGRVERGKGVFAEIDGKTFEVEFRGYSHFEGHHHHHH | soluble |
| MSLGAWPTAPITIVVPFAAGQTGDIIARLLGKELAERLKQPFVVDNKGGGGGRIGTAFVAKAKPDGYTLLMTSTGPYAIAPALYPRTMQYDPVRDFTGIAETATTPQIIAVSPKSGINTFADLVKQAKKSDMSYGSAGNGSTQHLTMELLKKELNFPLVHVPFKGSSESKTQVISGMIPVTSDSLPAIYTNIKSGQMKAIAVVDKQRSAYLPDVPTLAESGFPSLSTVAFFGLVAPKNTPKEVVNLLNKNLTEIYRTPDFQQKMKELAMTPPAEKTAEQFTAYLTEEVARWKKIVQDSNVKVEEGHHHHHH | soluble |
| MSLGDKKYVKRLLGSCWDYPFSGSGVGITEREAVLRAFGEYTERFIGMYYQFIARDKMIFATYRDLDKMGLNALSPHSIQLFHKRQYQQKDFPYSKFCEDSLIKWMPGKSLITNEEVYVPASFVLTPYIPERGENLISPSVTTGSAAHSNLTQAIINGIYEVIERDTARIYWYGNLRSTKLKVDNKDIKDFIDFIKNKKDIEVIITYMENDLNIPTFMASIIIGKNNRKSVVTGLSSNINPINGLKKAITEAFHTYLWKLLTQPSPKQQLENFTDHVALYLDPKMYIHFIDFINSNEELSLQSLILASAVYSFDSAERHLNMLIRLLKNKVLDLIVVDITPEILRKTGIHVVKVIIPPLLSILAGHIQYLGDKRLYNEGHHHHHH | not soluble |
| MSLGDKPLQTVLHDEHYGGLDFSLGDSKYSGELEYNKSYMVNFSVNLPAEGSVKVAKAYVYWVWSKKDLEGIYPQFNASIINSETTAPLPKGHMYTDTKGFVSRYDYFSGMNTYDLSGKISKSGNYSISLVNTDKNGSTFCVQGIGLLLVYEDPKSPAIEYWINEGCDMLYADYGITPEVATTTTYFKGDIDPDNVTDARLITVSPSGGYSSGREARNKLFFNEETRSIPVLGDIVQLLFGSGKVWENVYQTNETVQIALDEKPVADYLEPTENFASIQDNGDYLLATNAILVLKFKGPESSETKGSEGHHHHHH | soluble |
| MSLGEEAAGEGGEAEKTITINVGLLVDETGPTSDVGKGYSLGAELAFKYFNEKGIYTKDGVRVNINYIKRDYAYNPTTAEEYYREFRDRYGVIAIIGWGTADTEKLSDQVDTDKITYISASYSAKLLVKPFNFYPAPDYSTQACSGLAFLASEFGQGKLALAYDSKVAYSRSPIGAIKKAAPSLGLQVVGDYDLPLRATEADAERIAREMLAADPDYVWCGNTISSCSLLGRAMAKVGLDAFLLTNVWGFDERSPQLIGEGGYGKVFGISPFIYPMFGQDVEGIQTIFEAARMNGVSEDQINLRVVQGFVNVWLLIKAIESVTSQDLQERGGEALKEALEANTFDLGGITADTIDYEPGFHLAYRKVFIIKLGENGELQLMGKFEAPSQVDCARYTIEEGHHHHHH | soluble |
| MSLGELLFNRSFENTKPVSESNSWYTCYRGDVKEAKWWHSGYEEPKWYLLADGRKEEKLPLIFNNYWPSAHGKYFLQIDNRKKQIPTLLVQERIYIEKGKGYTVSGLFSSGGYLSEEKYSKESVPVTIAIYKEGDFHTPLSKTELAVNTNQFILYSSSLDATEYEGWCTYTIEVPAGGCVGIDLLSLMADDVIKGWKRESVERIKNELRPRTMRMPGGCFTSLYDWRSGIGPREERPVSYDTWWGCELLNDVGTFELVDLCEAVGAEPFFCVPVMFNNEYSAADWVDFCNNPTNAQRIAYGRTKPLNVKYWELENEPYRRFDAVTYANRCVDFAKAMKAKDPSIKIAVGNYWLFNKKFKEMLEIVGPYVDLITNRGGTPEEMRADIVILDAYNKAHGTDIKLCHTEFRAPVTRNEGNTDGLNQKDTGGEETLFNASIRWGFAMNMVEQYIAYQNMGGSFFTANYTNLSDGWGECLINTPKEGTYLNAPGVAFALLNSLDIAYPQIIEQEKENQDIVIQAAWNKRRDKLTLVVLNFSQNTQPCKIDFSQIKKSFRVRKGMKIAPQSDLSFNTLQHPEEVKVESFVPSTGKMMKLGLPGNSLIVVELQAERSHGIHVNASTGNEGHHHHHH | not soluble |
| MSLGENVEFKEFLGNFHLKEGRFRQLACQMNHRIIMGKGVALYVVGVSDSGEIKGIDENKFSETIEVLKKLATEIEAEVSSVERHEVNGGYVGLVEIRKTKAKEHILVGTAGHVDHGKSTLVGCLITGKPDDGDGATRVYLDVLKHEIERGLSAEISFAVFGYKDGKVLRMKNPLSKAEKAMVVETADKLVSFVDTVGHEPWLRTTIRGLLGQKVDYGLLVVAANDGVMRTTKEHLGIMLAMDLPVIVAVTKADMVDDARLSEVLQEISATLRRVGRVPTVLKSRHDARKAAEMVKSNKLLVPVVITSAVTLEGYDILEEIFLHLPKRYTADEDFLMYIDKIYSVTGVGTVVSGSVKSGELAEGDEVYIGPFQDGSFRRVRIQSIEMHHYRIDRAKAGDIIGAAVKGVRYDELRRGMVISRKEPRAVWEFDAEIYVFTHPTLISVGYEPVMHVETISETVTFVEMDKEYLKPGDRGIVRMKFKYHPHFVYEGQKFIFREGRSKGMGEIIRVFEGHHHHHH | soluble |
| MSLGETYAPQCAGPAPEPRTLPRTLPDGACDCHFHVFGDENGQPFSPHRSYTPPPAPLEAFQRVQKTLGLSRGVIVQPSVYGADNSTTLAALKEAGSAFRGVVVIDADTDTETLWAMHRLGVRGVRVNLIFKSGVEVSDVAALAEKVAPLGWHLQLLIDITEFADLYETVASLPVAVVIDHMGHMPTSCGLGHPGFTDLLRLLKEGRVWVKLSGAYRFTASKDFPYDDVTPYARALIEANPNRLLWASDWPHPCIPVPMPNDASLLEMLFNWVENDDALIKQILVDNPAKLYGEGHHHHHH | not soluble |
| MSLGFKEYYRAFPTYTKIESKEYKGRVETLGPILIKYMNKNRGKVLDLACGVGGFSFFLEDLGFDVVGLDNNPEMIEAAKRYAEKRSSKVNFVVGDAKNLPFENNSFDYVIFIDSIFHFTPSELNQVFKEVKRVIKPEGRFLIYFTDLRELLPNLKERLVIGEKYWVNRITTDTSERIATIEFKSEDDEFRVEFNIWGKTGVELLAKLYFTKEAEEKVGGYSYLIVYNPKEGHHHHHH | soluble |
| MSLGIAGTNTVRLQVYTNLKTFKSGDEISDGWVAKFHTDGDYIKWFAIENEDSLEGKEIKLFDTYKVDYTGTIKEKEKGKVTYAVLKAYVAIDPLERQYKELTLGIGDEIEDTAYSIKDVDVEFEPKETYIPKKLTEPITVLDTEIMEQGLENVDSNLILVGGPVVNKVTAALAEDLGVPTTYDEWKEKFGTGADSGQIIYKEKCSKIGGYGVLLVAGTDREGTRAAAEALLEYISKLEGHHHHHH | soluble |
| MSLGITGPTFDLTAQPGRANQPDGASVYSWGYGCNPRTVPGFLPSVNPLAGQNCPGMQLPGPTLIVHQGDVVTVTLTNNLPPAAGNTSILFPGFQVCAGTLDPNTGACSGTPTGVQGLLTREAQTGKTVTYTFIATTPGTHAYYSGTQGDLQVEMGLYGALIVLPTASGSVAVPAGCRAVSSLLPDGQPDYRNAAAAYNHSMACYDREYLFQFSEIDPAIHVQAEQQAGLPCAQPAGCMIVRTEPYHPAYFMVNGRSMPDDMDTNYAPQYPSQPYNGNPHMHPGELVLLRIIGTGRWQHPFHEHGNHVRVLARDGNLLLSQGDPSKVAGPLLFTTTTTPGLAMDGIFYWTGRGLNWDVYGHKPGDGSVCIPDANGYYTQDPTAPNYYEWCADHDKPLEAHPFGDVNSGGPVTLPDPNIFSNGAWYGGSPYLGPDATIRAVGATGTTPPTGTIANPPTTEAGFAFMWHSHNEREITTNNIFPGGMMMMMLVDPQAFVINEANEGHHHHHH | not soluble |
